Experiments:
[1] = molecular target: T1, human Siglec-7 expressed on human cells (primary monocytes, dendritic cells, macrophages, NK cells, … (human, UniProt Q9Y286 19-467)); assay: cell-based or functional assay
[2] = molecular target: T1, human Siglec-7 expressed on human cells …; assay: cell-based or functional assay; remark: listed apart in the source
[3] = molecular target: T1, human Siglec-7 expressed on human cells …; assay: FACS, human primary monocytes, 10 ug/ml mAb
[4] = molecular target: T1, human Siglec-7 expressed on human cells …; assay: FACS, human primary macrophages, 10 ug/ml mAb
[5] = molecular target: T1, human Siglec-7 expressed on human cells …; assay: FACS, human primary dendritic cells, 10 ug/ml mAb
[6] = molecular target: T2, Histidine-tagged human Siglec-7 (NovoProtein) (human, UniProt Q9Y286 19-357, limits assumed); assay: SPR (BiaCore T200, 25 C), antibody captured on anti-mouse IgG, Siglec-7-His 50 nM, single-concentration kinetics
T2 construct: Bought protein; also called purified Siglec-7-his tagged protein; not shown: histidine tag
Protocol: (§1) SPR data was collected at a rate of 10 Hz at 25′ C on a BiaCore T200 instrument. Data analysis was performed using BiaCore T200 Evaluation Software, version 2.0. HBS-EP+ (100 mM HEPES, 1.5 M NaCl, 30 mM EDTA, 0.5% v/v Surfactant P20, pH 7.4) was used as running buffer and for preparing reagents.
(§2) Mouse-derived antibodies (25 nM) against Siglec-7 were captured (60 s contact time, 30 μL/min flow rate, 0 s stabilization time) on a CM5 sensor chip (GE Healthcare) immobilized with anti-mouse IgG. Histidine-tagged human Siglec-7 (NovoProtein) was then flowed over the captured anti-Siglec-7 surface (120 s contact time, 30 μL/min flow rate, 300 s dissociation time). Concentration of antigen ranged from 5 nM to 100 nM, depending on information obtained from an initial screen. Duplicate single-concentration trials were performed and bracketed by a blank (0 nM antigen) sample. The chip surface was regenerated in between cycles using 10 mM glycine-HCl, pH1.7 (60 s contact time, 30 μL/min flow rate, 60 s stabilization time). The resulting SPR signal was obtained as the difference in response from measurements performed on a blank flow cell.
(§3) Affinity constants (KD) were calculated from the ratio kd/kₐ. For one antibody (clone 1E8), we validated the single-concentration analysis with a multiple-concentration approach (five concentrations of antigen used, plus one blank).

[7] = molecular target: T3, Siglec-7-Fc (plate immobilized) (human, UniProt Q9Y286 19-357, limits assumed); assay: RBC solid adhesion assay, plate-coated Siglec-7-Fc, antibody 0.5 or 1.0 ug/ml; % of RBC binding without antibody
T3 construct: also called Siglec-7-Fc protein; immobilized Siglec-7; not shown: Fc part
Summary of the method: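 Plates coated overnight at RT with 5 μg/ml Siglec-7-Fc and blocked in PBS with BSA and 1 mM CaCl₂. Antibody (0.5 or 1.0 μg/ml) bound 1 h at RT, then RBCs (3.0×10⁶ cells/ml) added for 1 h at RT. Bound RBCs lysed and detected by peroxidase at 450 nm, expressed as % of binding without antibody.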

[8] = molecular target: T2, Histidine-tagged human Siglec-7 …; assay: SPR (BiaCore T200, 25 C), antibody captured on anti-mouse IgG, Siglec-7-His 10 nM, single-concentration kinetics
Protocol: as §1, §2, §3

[9] = molecular target: T2, Histidine-tagged human Siglec-7 …; assay: SPR (BiaCore T200, 25 C), antibody captured on anti-mouse IgG, Siglec-7-His 5 nM, single-concentration kinetics
Protocol: as §1, §2, §3

[10] = molecular target: T2, Histidine-tagged human Siglec-7 …; assay: SPR (Biacore T200), antibody captured on anti-mouse IgG, 5 nM Siglec-7-his flowed over, single-concentration 1:1 fit, 25 C
Protocol: as §1, §2, §3

R124A [11] = molecular target: T4, R124A (human, UniProt Q9Y286); assay: flow cytometry on HEK-293T cells expressing the mutant, mock signal subtracted
T4 construct: clone of the siglec-7 mutation library; also called Siglec-7 R124A
Protocol: (§4) Shotgun mutagenesis epitope mapping of anti-siglec-7 antibodies was performed using an alanine-scanning library for the siglec-7 protein. […] Each of residues 19 to 353 was mutated, representing the siglec-7 extracellular domain, most to alanine, while alanine codons were mutated to serine. In total, 335 siglec-7 mutant expression constructs were generated, sequences confirmed, and arrayed into a 384-well plate, one mutant per well.
Cells were then incubated with MAbs diluted in 10% o normal goat serum (NGS) (Sigma-Aldrich, St. Louis, Mo.). Prior to library screening, primary MAb concentrations were determined using an independent immunofluorescence titration curve against cells expressing wild-type siglec-7 to ensure that signals were within the linear range of detection. MAbs were detected using 3.75 μg/ml AlexaFluor488-conjugated secondary antibody (Jackson immunoResearch Laboratories, Westgrove, Pa.) in 10% NGS. […] Mean cellular fluorescence was detected using the Intellicyt high throughput flow cytometer (HTFC, Intellicyt, Albuquerque, N. Mex.). MAb reactivities against each mutant clone were calculated relative to wild-type siglec-7 protein reactivity by subtracting the signal from mock-transfected controls, and normalizing to the signal from wild-type siglec-7-transfected controls.

Y50A = molecular target: T5, Y50A (human, UniProt Q9Y286); assay: flow cytometry on HEK-293T cells expressing the mutant; mean % of wild-type signal (range of duplicates)
T5 construct: clone of the siglec-7 mutation library; also called Siglec-7 Y50A
Protocol: as §4
(§5) Cells were then incubated with MAbs diluted in 10% o normal goat serum (NGS) (Sigma-Aldrich, St. Louis, Mo.). Prior to library screening, primary MAb concentrations were determined using an independent immunofluorescence titration curve against cells expressing wild-type siglec-7 to ensure that signals were within the linear range of detection. MAbs were detected using 3.75 μg/ml AlexaFluor488-conjugated secondary antibody (Jackson immunoResearch Laboratories, Westgrove, Pa.) in 10% NGS. Cells were washed twice with PBS−/− and resuspended in Cellstripper (Cellgro, Manassas, Va.) with 0.1% BSA (Sigma-Aldrich, St. Louis, Mo.). Mean cellular fluorescence was detected using the Intellicyt high throughput flow cytometer (HTFC, Intellicyt, Albuquerque, N. Mex.). MAb reactivities against each mutant clone were calculated relative to wild-type siglec-7 protein reactivity by subtracting the signal from mock-transfected controls, and normalizing to the signal from wild-type siglec-7-transfected controls.

I72A = molecular target: T6, I72A (human, UniProt Q9Y286); assay: as above
T6 construct: clone of the siglec-7 mutation library; also called Siglec-7 I72A
Protocol: as §4, §5

W74A = molecular target: T7, W74A (human, UniProt Q9Y286); assay: as above
T7 construct: clone of the siglec-7 mutation library; also called Siglec-7 W74A
Protocol: as §4, §5

N81A = molecular target: T8, N81A (human, UniProt Q9Y286); assay: as above
T8 construct: clone of the siglec-7 mutation library; also called Siglec-7 N81A
Protocol: as §4, §5

K104A = molecular target: T9, K104A (human, UniProt Q9Y286); assay: as above
T9 construct: clone of the siglec-7 mutation library; also called Siglec-7 K104A
Protocol: as §4, §5

T107A = molecular target: T10, T107A (human, UniProt Q9Y286); assay: as above
T10 construct: clone of the siglec-7 mutation library; also called Siglec-7 T107A
Protocol: as §4, §5

R124A [12] = molecular target: T4, R124A; assay: as above
Protocol: as §4, §5

M185A = molecular target: T11, M185A (human, UniProt Q9Y286); assay: as above
T11 construct: clone of the siglec-7 mutation library; also called Siglec-7 M185A
Protocol: as §4, §5

M30A = molecular target: T12, M30A (human, UniProt Q9Y286); assay: as above
T12 construct: clone of the siglec-7 mutation library; also called Siglec-7 M30A
Protocol: as §4, §5

Q31A = molecular target: T13, Q31A (human, UniProt Q9Y286); assay: as above
T13 construct: clone of the siglec-7 mutation library; also called Siglec-7 Q31A
Protocol: as §4, §5

V44A = molecular target: T14, V44A (human, UniProt Q9Y286); assay: as above
T14 construct: clone of the siglec-7 mutation library; also called Siglec-7 V44A
Protocol: as §4, §5

R45A = molecular target: T15, R45A (human, UniProt Q9Y286); assay: as above
T15 construct: clone of the siglec-7 mutation library; also called Siglec-7 R45A
Protocol: as §4, §5

S47A = molecular target: T16, S47A (human, UniProt Q9Y286); assay: as above
T16 construct: clone of the siglec-7 mutation library; also called Siglec-7 S47A
Protocol: as §4, §5

F48A = molecular target: T17, F48A (human, UniProt Q9Y286); assay: as above
T17 construct: clone of the siglec-7 mutation library; also called Siglec-7 F48A
Protocol: as §4, §5

T3 sequence (Q9Y286 19-357 limits assumed): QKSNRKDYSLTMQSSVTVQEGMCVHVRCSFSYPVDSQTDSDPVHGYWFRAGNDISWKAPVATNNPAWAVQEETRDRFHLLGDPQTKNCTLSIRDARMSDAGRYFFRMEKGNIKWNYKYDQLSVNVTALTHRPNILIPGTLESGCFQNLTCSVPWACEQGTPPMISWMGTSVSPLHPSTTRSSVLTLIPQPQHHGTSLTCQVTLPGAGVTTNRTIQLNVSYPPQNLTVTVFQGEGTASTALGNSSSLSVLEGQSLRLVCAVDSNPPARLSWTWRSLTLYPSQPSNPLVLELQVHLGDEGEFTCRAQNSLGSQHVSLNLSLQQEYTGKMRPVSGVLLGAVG
T2 sequence (Q9Y286 19-357 limits assumed): as above
T1 sequence (Q9Y286 19-467): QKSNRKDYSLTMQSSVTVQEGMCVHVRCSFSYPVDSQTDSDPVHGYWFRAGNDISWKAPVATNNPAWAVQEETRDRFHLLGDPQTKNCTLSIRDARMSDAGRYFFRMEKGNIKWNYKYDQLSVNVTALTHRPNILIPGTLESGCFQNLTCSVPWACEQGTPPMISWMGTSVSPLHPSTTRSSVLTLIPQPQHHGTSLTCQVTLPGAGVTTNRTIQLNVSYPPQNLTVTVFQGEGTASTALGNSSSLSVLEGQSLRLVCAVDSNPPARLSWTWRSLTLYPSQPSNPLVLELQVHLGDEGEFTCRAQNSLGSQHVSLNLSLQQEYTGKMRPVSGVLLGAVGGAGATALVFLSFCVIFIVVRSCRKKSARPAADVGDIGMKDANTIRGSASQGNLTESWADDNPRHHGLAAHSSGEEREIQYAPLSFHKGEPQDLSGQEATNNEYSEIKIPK
T4 sequence (Q9Y286 19-467 R124A limits assumed): as the sequence (Q9Y286 19-467) above, with R106A counted along it
T15 sequence (Q9Y286 19-467 R45A limits assumed): as the sequence (Q9Y286 19-467) above, with R27A counted along it
T7 sequence (Q9Y286 19-467 W74A limits assumed): as the sequence (Q9Y286 19-467) above, with W56A counted along it
T16 sequence (Q9Y286 19-467 S47A limits assumed): as the sequence (Q9Y286 19-467) above, with S29A counted along it
T10 sequence (Q9Y286 19-467 T107A limits assumed): as the sequence (Q9Y286 19-467) above, with T89A counted along it
T11 sequence (Q9Y286 19-467 M185A limits assumed): as the sequence (Q9Y286 19-467) above, with M167A counted along it
T6 sequence (Q9Y286 19-467 I72A limits assumed): as the sequence (Q9Y286 19-467) above, with I54A counted along it
T14 sequence (Q9Y286 19-467 V44A limits assumed): as the sequence (Q9Y286 19-467) above, with V26A counted along it
T13 sequence (Q9Y286 19-467 Q31A limits assumed): as the sequence (Q9Y286 19-467) above, with Q13A counted along it
T17 sequence (Q9Y286 19-467 F48A limits assumed): as the sequence (Q9Y286 19-467) above, with F30A counted along it
T12 sequence (Q9Y286 19-467 M30A limits assumed): as the sequence (Q9Y286 19-467) above, with M12A counted along it
T5 sequence (Q9Y286 19-467 Y50A limits assumed): as the sequence (Q9Y286 19-467) above, with Y32A counted along it
T9 sequence (Q9Y286 19-467 K104A limits assumed): as the sequence (Q9Y286 19-467) above, with K86A counted along it
T8 sequence (Q9Y286 19-467 N81A limits assumed): as the sequence (Q9Y286 19-467) above, with N63A counted along it

Row | Binder | Percent Siglec-7 Surface Expression, DCs [1] [%] | Percent Siglec-7 Surface Expression, Monocytes [1] [%] | Percent Siglec-7 Surface Expression, U937 cells [1] [%] | Percent Siglec-7 Surface Expression, Macrophages [2] [%] | Percent Siglec-7 Surface Expression, Microglia [2] [%] | Percent Siglec-7 Surface Expression, NK cells [2] [%] | % Positive [3] [%] | MFI [3] | % Positive [4] [%] | MFI [4] | % Positive [5] [%] | MFI [5] | Percent RBC Binding to Siglec-7 [7] [%] | also measured
1 | anti-Siglec-7 antibody 2G4 (antibody, V domains shown, Variable domains assembled from FR and CDR entries) VH: QVQLQQSGSELRSPGSSVKLSCKDFDSEVFPITYMNWVRQKPGHGFEWIGDILPSIGRTMYGEKFEDKATLDADTVSNTAYLELNSLTSEDSAIYYCARSEGYLLAYWGQGTLVTVSA VL: DIQMTQSLSYLSVSLGGRVTITCKASDHINNWLAWYQQKPGNAPRLLISGATSLETGFPSRFSGSGSGKDYTLSITSLQTEDVATYYCHQYWNTPYTFGGGTRLEIK | 98.1 | 29.3 | 84.6 | 14.1 | 23 | 126 | 99.3 | 512 | 99.5 | 15500 | 99.7 | 5750 | 11.6 | Kd [6]: 0.4 nM
2 | anti-Siglec-7 antibody 10G8 (antibody, V domains shown, Variable domains assembled from FR and CDR entries) VH: EVKLVEFGGALVKPGGSLKLSCAALGFTFSTYAMFRVRQTPEKREEGVASISSGGRYTYYPDSAKDRHPIFRDNARNTLYLQMSSLRSKDTAMYYCVRHSYGSSYWYLDVWGAGTTVTVSS VL: DIQMTQFPATLSGTPGDRVZLSRRASQSIREYLHWYQQKSHESPRLZIKFASQSICGIPSRFSGSGSGSDFTLSINTVEPEDVGVYYCQKAHNFPYTFGGGTKLEIK | 10.5 | 30.9 | 83.8 | 9.2 |  | 74.7 | 99.1 | 523 | 99.7 | 3280 | 99.5 | 897 | 111 | Kd [8]: 0.6 nM
3 | anti-Siglec-7 antibody 1E8 (antibody, V domains shown) VH: QVQLQQSGAELVRPGASVKLSCSASGFNIKGSLLHWIKQRPLQGLEWIGWIDPEDGETRFDPKFQDKAFLTADTSSTTAYLQLSSLTSEDTAIYYCARTEYSNPAWFAYWGQGTLVTVSA VL: DIQMTQFPATLSVTPGDRVSLSCRASQSISDYLHWYQHKSHESPRLLIKYASQSISGIPSRFSGSGSGWDFTLSINSVEPEDVGIYYCQKGLNFPLTFGGGTKLEMK | 23 | 36.7 | 114 | 9.1 | 41.3 | 144 | 99.3 | 428 | 99.5 | 5450 | 99.7 | 2940 | 16.4 | Kd [9]: 0.017 nM; Kd [10]: 0.017 nM
4 | 4E3 Fab (Fab, V domains shown) VH: EVQLVESGGALVKPGGSLKISCAVSGFIFSNYDMSWVRQNPEKRLEWVATISSGGGYTYYPDSVKGRFTISRDNAKNALYLQMSSLRSEDTALYYCTRHGYGNYDWYFDVWGAGATVTVSS VL: QIVLTQSPAILSASPGEKVTMTCSANSSFTYMYWYQQKPGSSPRLLIFDTSNLASGVPIRFSGSGSGTSYSLTISRMEAEDTATYYCQQWSSSPLTFGAGTKLELK |  |  |  |  |  |  |  |  |  |  |  |  |  | binding result (R124A [11]): no binding; Binding Reactivity (% WT) (Y50A): 139 % WT; Binding Reactivity (% WT) (I72A): 26.5 % WT; Binding Reactivity (% WT) (W74A): 25.7 % WT; Binding Reactivity (% WT) (N81A): 22 % WT; Binding Reactivity (% WT) (K104A): 115 % WT; Binding Reactivity (% WT) (T107A): 124 % WT; Binding Reactivity (% WT) (R124A [12]): 1 % WT; Binding Reactivity (% WT) (M185A): 91.6 % WT; Binding Reactivity (% WT) (M30A): 123 % WT; Binding Reactivity (% WT) (Q31A): 112 % WT; Binding Reactivity (% WT) (V44A): 115 % WT; Binding Reactivity (% WT) (R45A): 129 % WT; Binding Reactivity (% WT) (S47A): 103 % WT; Binding Reactivity (% WT) (F48A): 146 % WT
